Assay results from patent US20220127354A1 (Amgen, published 2022).
Blank lines part the entries; values can stand above or below the binder they belong to.

What was measured:
[1] = target: T1, ckCDH19(1-43)::FLAG::ckCDH19(44-776) (construct J, Ck EC1-5) (chicken); assay: flow cytometry, transfected 293T cells, 2 mM CaCl2;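 further: binding of Alexa647-labelled anti-CDH19 antibodies to cells expressing human/chicken CDH19 chimeras, read as cell-bound fluorescence, with mock-transfected cells as controls, n.d. meaning not determined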
T1 construct: the entry holds leader (1-43), FLAG and ckCDH19(44-776); leader left out; also called chicken Cadherin19
T1 chain: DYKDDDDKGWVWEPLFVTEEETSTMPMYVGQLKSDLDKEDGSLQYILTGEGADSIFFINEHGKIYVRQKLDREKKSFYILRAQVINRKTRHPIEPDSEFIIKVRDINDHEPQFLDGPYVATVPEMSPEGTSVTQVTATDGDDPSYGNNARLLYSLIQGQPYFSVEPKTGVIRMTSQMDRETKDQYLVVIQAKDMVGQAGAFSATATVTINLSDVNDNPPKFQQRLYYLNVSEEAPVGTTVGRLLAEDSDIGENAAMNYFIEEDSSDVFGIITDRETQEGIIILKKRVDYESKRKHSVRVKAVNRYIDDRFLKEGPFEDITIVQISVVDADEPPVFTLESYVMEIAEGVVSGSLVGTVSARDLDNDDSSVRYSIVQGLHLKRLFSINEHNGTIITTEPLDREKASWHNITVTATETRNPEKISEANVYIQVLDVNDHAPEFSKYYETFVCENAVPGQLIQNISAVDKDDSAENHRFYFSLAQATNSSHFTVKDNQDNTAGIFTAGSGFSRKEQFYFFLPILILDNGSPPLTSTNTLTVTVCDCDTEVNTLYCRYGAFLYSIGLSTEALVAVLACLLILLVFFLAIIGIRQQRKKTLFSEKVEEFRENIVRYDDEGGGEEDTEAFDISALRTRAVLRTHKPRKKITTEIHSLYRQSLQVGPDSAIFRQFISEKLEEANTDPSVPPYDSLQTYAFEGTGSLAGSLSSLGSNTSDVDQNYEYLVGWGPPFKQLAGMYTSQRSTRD
Description: (§1) The experiment included assaying a subset of anti-CDH19 antibodies against chicken Cadherin19 to determine suitability for binning on these human/chicken chimeras.
(§2) The following binding assay was completed in presence of 2 mM CaCl₂). […] Cells were then washed one time and the amount of cell associated Alexa647-labelled Ab was quantitated by flow cytometry. The experiments included mock transfected controls.

[2] = target: T2, huCDH19(1-43)::FLAG::hu(44-141)::ckCDH19(142-776) (construct K, Hu EC1) (human/chicken chimera); assay: flow cytometry, transfected 293T cells, 2 mM CaCl2;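 further: binding of Alexa647-labelled anti-CDH19 antibodies to cells expressing human/chicken CDH19 chimeras, read as cell-bound fluorescence, with mock-transfected cells as controls, n.d. meaning not determined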
T2 construct: leader (1-43 of the entry) left out; also called huCDH19(44-141)::ckCDH19(142-776)
Description: as §1, §2

[3] = target: T3, ckCDH19(1-43)::FLAG::ckCDH19(44-141)::huCDH19(142-249)::ckCDH19(250-776) (construct L, Hu EC2) (human/chicken chimera); assay: flow cytometry, transfected 293T cells, 2 mM CaCl2;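 further: binding of Alexa647-labelled anti-CDH19 antibodies to cells expressing human/chicken CDH19 chimeras, read as cell-bound fluorescence, with mock-transfected cells as controls, n.d. meaning not determined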
T3 construct: leader (1-43 of the entry) left out
T3 chain: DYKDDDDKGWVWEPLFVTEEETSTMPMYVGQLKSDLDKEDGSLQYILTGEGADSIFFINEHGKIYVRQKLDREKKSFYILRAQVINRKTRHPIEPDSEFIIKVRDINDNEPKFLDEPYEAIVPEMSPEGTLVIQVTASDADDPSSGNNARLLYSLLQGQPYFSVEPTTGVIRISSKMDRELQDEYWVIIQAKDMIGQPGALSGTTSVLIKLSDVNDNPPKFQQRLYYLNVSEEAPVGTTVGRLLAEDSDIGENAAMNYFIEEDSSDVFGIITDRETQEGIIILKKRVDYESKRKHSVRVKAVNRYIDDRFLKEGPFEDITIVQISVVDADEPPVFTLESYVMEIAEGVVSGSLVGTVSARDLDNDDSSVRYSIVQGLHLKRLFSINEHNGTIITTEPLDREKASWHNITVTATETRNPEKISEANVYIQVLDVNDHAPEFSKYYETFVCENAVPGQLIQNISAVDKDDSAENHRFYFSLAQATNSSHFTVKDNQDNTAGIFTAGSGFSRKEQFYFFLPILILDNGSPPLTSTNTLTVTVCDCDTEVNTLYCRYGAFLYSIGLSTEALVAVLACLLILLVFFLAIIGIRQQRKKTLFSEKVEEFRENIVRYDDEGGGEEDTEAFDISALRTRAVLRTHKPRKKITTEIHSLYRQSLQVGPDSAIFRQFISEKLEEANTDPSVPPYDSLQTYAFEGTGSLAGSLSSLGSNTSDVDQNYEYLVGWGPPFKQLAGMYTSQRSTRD
Description: as §1, §2

[4] = target: T4, ckCDH19(1-43)::FLAG::ckCDH19(44-468)::huCDH19(464-772) (construct O, Hu EC5) (human/chicken chimera); assay: flow cytometry, transfected 293T cells, 2 mM CaCl2;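 further: binding of Alexa647-labelled anti-CDH19 antibodies to cells expressing human/chicken CDH19 chimeras, read as cell-bound fluorescence, with mock-transfected cells as controls, n.d. meaning not determined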
T4 construct: leader (1-43 of the entry) left out
T4 chain: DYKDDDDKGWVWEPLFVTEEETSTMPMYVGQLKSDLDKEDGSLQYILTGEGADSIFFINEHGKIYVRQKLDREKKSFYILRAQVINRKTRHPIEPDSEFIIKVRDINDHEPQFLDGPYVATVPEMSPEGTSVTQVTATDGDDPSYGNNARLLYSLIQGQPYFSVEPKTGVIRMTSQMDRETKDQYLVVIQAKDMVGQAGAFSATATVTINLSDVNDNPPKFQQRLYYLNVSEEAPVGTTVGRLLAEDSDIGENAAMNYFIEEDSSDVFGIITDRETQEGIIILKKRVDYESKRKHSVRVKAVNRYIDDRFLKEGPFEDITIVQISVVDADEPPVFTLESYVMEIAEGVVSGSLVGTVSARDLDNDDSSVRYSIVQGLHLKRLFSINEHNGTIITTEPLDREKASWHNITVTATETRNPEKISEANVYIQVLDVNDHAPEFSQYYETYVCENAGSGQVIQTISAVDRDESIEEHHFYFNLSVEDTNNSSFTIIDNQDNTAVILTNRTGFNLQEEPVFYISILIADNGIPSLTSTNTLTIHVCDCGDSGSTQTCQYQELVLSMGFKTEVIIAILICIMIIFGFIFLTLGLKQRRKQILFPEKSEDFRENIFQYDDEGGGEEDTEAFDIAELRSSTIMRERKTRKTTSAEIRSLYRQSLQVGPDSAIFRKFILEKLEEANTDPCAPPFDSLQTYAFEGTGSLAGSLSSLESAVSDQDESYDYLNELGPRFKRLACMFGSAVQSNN
Description: as §1, §2

[5] = target: T5, muCDH19(44-770) with Flag tag (construct I, Mu EC1-5) (mouse); assay: flow cytometry, transfected 293T cells, 2 mM CaCl2
T5 construct: leader left out; the entry starts at residue 44; also called Mo EC1-5; mouse Cadherin19
T5 chain: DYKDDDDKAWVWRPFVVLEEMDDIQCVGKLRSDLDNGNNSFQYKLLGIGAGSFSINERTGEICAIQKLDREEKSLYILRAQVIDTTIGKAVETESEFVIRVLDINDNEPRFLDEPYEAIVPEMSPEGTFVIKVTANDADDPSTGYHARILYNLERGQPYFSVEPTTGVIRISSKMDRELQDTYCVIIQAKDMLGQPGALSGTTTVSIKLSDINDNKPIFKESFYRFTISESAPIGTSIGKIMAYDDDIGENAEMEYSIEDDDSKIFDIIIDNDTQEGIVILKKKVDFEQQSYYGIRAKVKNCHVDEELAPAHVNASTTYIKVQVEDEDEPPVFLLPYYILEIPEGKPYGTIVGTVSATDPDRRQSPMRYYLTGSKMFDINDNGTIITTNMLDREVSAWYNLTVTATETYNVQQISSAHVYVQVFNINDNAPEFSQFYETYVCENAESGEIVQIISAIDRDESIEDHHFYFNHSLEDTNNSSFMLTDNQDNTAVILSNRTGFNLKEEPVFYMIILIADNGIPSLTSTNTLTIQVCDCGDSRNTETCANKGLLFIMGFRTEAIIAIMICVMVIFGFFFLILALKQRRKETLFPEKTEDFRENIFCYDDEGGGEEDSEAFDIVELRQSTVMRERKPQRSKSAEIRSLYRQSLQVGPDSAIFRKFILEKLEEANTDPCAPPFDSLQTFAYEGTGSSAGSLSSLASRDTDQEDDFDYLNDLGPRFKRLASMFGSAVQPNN
Description: as §2

[6] = target: huCDH19(44-772) with Flag tag (construct A, Hu EC1-5) (human, UniProt Q9H159 44-772); assay: flow cytometry, transfected 293T cells
Excerpt: (§3) The experiment included assaying the anti-CDH19 antibodies against mouse Cadherin19 to determine suitability for binning on these human/mouse chimeras.

[7] = target: T6, muCDH19(44-139)::huCDH19(142-364)::muCDH19(363-770) with Flag tag (construct E, Hu EC2-3) (human/mouse chimera); assay: flow cytometry, transfected 293T cells
T6 construct: leader left out; the entry starts at residue 44; also called C137847
Excerpt: as §3

[8] = target: T7, muCDH19(44-247)::huCDH19(250-364)::muCDH19(363-770) with Flag tag (construct F, Hu EC3) (human/mouse chimera); assay: flow cytometry, transfected 293T cells
T7 construct: leader left out; the entry starts at residue 44; also called C137911
Excerpt: as §3

B2: hu anti-<huCDH19> 4A2 (1-472)(Q17E,H47P) VH::huIgG1z + 4A2 (1-236)(N30Q,T102A) VL::huKLC (Ab ID 14026) (antibody, V domains shown)
VH: QVQLQESGPGLVKPSETLSLTCTVSGGSISSSGYYWSWIRQPPGKGLEWIGYIYYTGSAYYNPSLKSRVTISVDTSKNQFSLKLSSVTAADTAVYYCARDGSSGWYFQYWGQGTLVTVSS
VL: EIVLTQSPGTLSLSPGERATLSCRASRQISSSYLAWYQQKPGQAPRLLIYGPSSRATGIPDRFSGSGSGTDFTLTISRLEPEDFAVYYCQQYGSSFTFGPGTKVDIKR
notes: Engineered variant of 4A2; the entries already carry the changes; Bin 4
binding result [6]: binds
binding result [7]: binds
binding result [8]: binds

B4: hu anti-<huCDH19> 4B10 (1-471)(R17G) VH::huIgG1z + 4B10 (1-236)(H45Q,A90T) VL::huKLC (Ab ID 14054) (antibody, V domains shown)
VH: QVQLVESGGGVVQPGGSLRLSCAASGFTFSSYDMHWVRQAPGKGLEWVAVISYDGTNEYYADSVKGRFTISRDTSKNTLYLQMNSLRAEDTAVYYCARERYFDWSFDYWGQGTLVSVSS
VL: EIVLTQSPGTLSLSPGERATLSCRASQSVSNTYLAWYQQRPGQAPRLLIYGASSRATGIPDRFSGSGSGTDFTLTISSLEPEDFAVYYCQQYSNSWTFGQGTKVEIKR
notes: Engineered variant of 4B10; the entries already carry the changes; Bin 4
binding result [6]: binds
binding result [7]: binds
binding result [8]: binds

Continued, values first:

binding result [1]: no binding (tested: 5 ug/ml)
binding result [2]: binds
binding result [3]: no binding (tested: 5 ug/ml)
binding result [4]: no binding (tested: 5 ug/ml)
binding result [5]: no binding (tested: 5 ug/ml)
B1: hu anti-<huCDH19> 26F12.1 (Ab ID 13881) (antibody, human IgG1, lambda, V domains shown)
VH: QVQLVQSGAEVKKPGASVKVSCKASRYTFTNYYMSWVRQAPGQGLEWMGIINPSGGDSTYAQKFQGRLTMTGDTSTSTVYMELSSLRSEDTAVYYCARGGIQLWLHFDYWGQGTLVTVSS
VL: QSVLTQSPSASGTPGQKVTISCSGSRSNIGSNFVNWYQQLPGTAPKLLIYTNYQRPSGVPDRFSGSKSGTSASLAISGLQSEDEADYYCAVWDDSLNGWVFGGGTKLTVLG
notes: huIgG1z / huLLC-C2; Bin 2; also called 27B3

binding result [1]: no binding (tested: 5 ug/ml)
binding result [2]: binds
binding result [3]: no binding (tested: 5 ug/ml)
binding result [4]: no binding (tested: 5 ug/ml)
B3: hu anti-<huCDH19> 17H8.2 (Ab ID 13874) (antibody, human IgG1, kappa, V domains shown)
VH: QVQLQESGPGLVKPSETLSLTCTVSGGSINSYYWSWIRQPPGKGLEWIGYIYYIGSTNYNPSLKSRVTISVDTSKNQFSLKLSSVTAADTALYYCARDSRYRSGWYDAFDIWGQGTMVTVSS
VL: DIVLTQSPGTLSLSPGERATLSCRASQSVAGSYLAWYQQKPGQAPRLLISGASSRATGIPDRFSGSGSGTDFTLTISRLEPEDFAVYYCQQYGKSPITFGQGTRLEMKG
notes: huIgG1z / huKLC; Bin 3; also called 23B6; 28D10
